Laboratory results reported in patent US20260242478A1 (published 2026).
Where no end group is shown, it is not given here.

B1: Phage-2857 (peptide)
peptide: LERACVPSWMCTGF
modifications: cysteine pairing not given here; also: fused to pIII of display bacteriophage, linker and sequence not given here
notes: Clonal phage of the Peptide-180 library; not shown: pIII filament protein of the display bacteriophage
B2: Phage-2858 (peptide)
peptide: TQAMCKPAWMCQGF
modifications: cysteine pairing not given here; also: fused to pIII of display bacteriophage, linker and sequence not given here
notes: as for B1
B3: Phage-2859 (peptide)
peptide: WEFVCKPEWMCTGF
modifications: cysteine pairing not given here; also: fused to phage pIII, linker not given here
notes: as for B1
B4: Phage-2860 (peptide)
peptide: EWILCKPAWMCDGL
modifications: cysteine pairing not given here; also: fused to pIII of display bacteriophage, linker and sequence not given here
notes: as for B1
B5: Phage-2861 (peptide)
peptide: WDRLCIPAWMCSGF
modifications: cysteine pairing not given here; also: fused to pIII of display bacteriophage, linker and sequence not given here
notes: as for B1
B6: Phage-2862 (peptide)
peptide: TGAYCVPQWMCSGF
modifications: cysteine pairing not given here; also: fused to phage pIII, linker not given here
notes: as for B1
B7: Phage-2863 (peptide)
peptide: FNVMCRPAWMCDFL
modifications: cysteine pairing not given here; also: fused to pIII of display bacteriophage, linker and sequence not given here
notes: as for B1
B8: Phage-2878 (peptide)
peptide: ESARCVPMWMCNGF
notes: tested as crude clonal phage supernatant
B9: Phage-2879 (peptide)
peptide: VTVICKPQWMCVGF
notes: as for B8
B10: Phage-2880 (peptide)
peptide: MHLMCKPAWMCAGF
notes: as for B8
B11: Phage-2881 (peptide)
peptide: GDPVCKPTWMCLGF
notes: as for B8
B12: Phage-2882 (peptide)
peptide: PERMCIPSWMCEVL
notes: as for B8
B13: Phage-2883 (peptide)
peptide: WDAKCVPRWMCDGF
notes: as for B8
B14: Phage-2884 (peptide)
peptide: EFMRCTPPWMCLGF
notes: as for B8
B15: Phage-2885 (peptide)
peptide: NPPYCVPAWMCAGF
notes: as for B8
B16: Phage-2886 (peptide)
peptide: DGIKCVPRWMCDGF
notes: as for B8
B17: Phage-2887 (peptide)
peptide: SLPLCKPLWMCEGF
notes: as for B8
B18: Phage-2888 (peptide)
peptide: VSKVCKPAWMCEGL
notes: as for B8
B19: Phage-2889 (peptide)
peptide: MASLCVPSWMCTGF
notes: as for B8
B20: Phage-2890 (peptide)
peptide: QEVYCKPAWMCDGF
notes: as for B8
B21: Phage-2891 (peptide)
peptide: EAHICRPLWMCTGF
notes: as for B8

Biological target: T1, PSMA Fab
T1 construct: Biotinylated and captured on neutravidin coated plates in the phage ELISA; also called Anti-PSMA Fab; 006 PSMA Fab
Assay: clonal phage ELISA on biotinylated PSMA Fab captured on neutravidin plates, anti-M13 HRP detection;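 also: crude clonal phage supernatants tested, before phage were added, wells were pretreated with PSMA antigen in blocking buffer or with blocking buffer only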
Description: (§1) Clonal phage were harvested as crude supernatants and screened via standard ELISAs. […] Prior to the addition of clonal phage. wells were incubated with blocking buffer and PSMA antigen or blocking buffer alone. Without washing or aspirating, clonal phage supernatants were then added to the wells and incubated for a short time. Wells were then washed followed by detection of bound phage using a horse radish conjugated anti-M13 antibody.

Row | Binder | Phage binding ELISA signal, Anti-PSMA Fab
1 | IETWCVPRWMCEGF [Phage-2864] | 2.42
2 | MSPLCKPVWMCAGF (cysteine pairing not given here; also: displayed on phage by fusion to pIII) [Phage-2865] | 2.4
3 | TSPACVPSWMCVGF [Phage-2866] | 2.4
4 | VLPMCSPPWMCIGL [Phage-2867] | 2.4
5 | EPIRCVPQWMCVGF [Phage-2868] | 2.4
6 | WPQLCVPMWMCAGL [Phage-2869] | 2.4
7 | SEFWCVPAWMCEGF [Phage-2870] | 2.4
8 | LERVCKPLWMCTGL [Phage-2871] | 2.39
9 | IDILCRPLWMCNGM [Phage-2872] | 2.39
10 | IIRHCVPMWMCQGF [Phage-2873] | 2.39
11 | ETLRCEPMWMCMGF [Phage-2874] | 2.39
12 | SMPRCVPVWMCEGF [Phage-2875] | 2.39
13 | DDIRCKPAWMCMGF [Phage-2876] | 2.38
14 | TLSMCVPTWMCTGF [Phage-2877] | 2.38

Biological target: T2, PSMA Fab
T2 construct: Biotinylated and captured on neutravidin plates in the phage ELISA; also called anti-PSMA Fab; 006 PSMA Fab
Assay: clonal phage ELISA on biotinylated PSMA Fab captured on neutravidin plates, anti-M13-HRP detection, no PSMA antigen
Description: as §1

Row | Binder | phage binding ELISA signal
15 | ETPFCIPQWMCDGF [Phage-2892] | 2.35
16 | ALPQCVPAWMCLGF [Phage-2893] | 2.35
17 | VLKMCEPLWMCVGF [Phage-2894] | 2.35
18 | QALMCVPEWMCLGF [Phage-2895] | 2.35
19 | IERMCRPAWMCDGF [Phage-2896] | 2.35

Biological target: T3, PSMA Fab
T3 construct: also called Anti-PSMA Fab; 006 PSMA Fab
Assay: clonal phage ELISA on captured PSMA Fab; wells pre-incubated with PSMA antigen as competitor
Description: as §1

Row | Binder | Phage binding ELISA signal (Anti-PSMA Fab, with competitor)
20 | B1 | 0.0938
21 | B2 | 0.0783
22 | B3 | 0.102
23 | B4 | 0.0639
24 | B5 | 0.197
25 | B6 | 0.112
26 | B7 | 0.158

Biological target: T1, PSMA Fab
Assay: clonal phage ELISA on captured PSMA Fab pre-incubated with PSMA antigen as competitor, anti-M13 HRP detection;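 also: crude clonal phage supernatants tested by ELISA, wells first treated with blocking buffer plus PSMA antigen, bound phage read out via HRP-linked anti-M13 antibody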
Description: as §1

Row | Binder | Phage binding ELISA signal, Anti-PSMA Fab with PSMA antigen
27 | IETWCVPRWMCEGF [Phage-2864] | 0.234
28 | MSPLCKPVWMCAGF (cysteine pairing not given here; also: displayed on phage by fusion to pIII) [Phage-2865] | 0.0828
29 | TSPACVPSWMCVGF [Phage-2866] | 0.071
30 | VLPMCSPPWMCIGL [Phage-2867] | 0.0912
31 | EPIRCVPQWMCVGF [Phage-2868] | 0.0918
32 | WPQLCVPMWMCAGL [Phage-2869] | 0.148
33 | SEFWCVPAWMCEGF [Phage-2870] | 0.0842
34 | LERVCKPLWMCTGL [Phage-2871] | 0.134
35 | IDILCRPLWMCNGM [Phage-2872] | 0.113
36 | IIRHCVPMWMCQGF [Phage-2873] | 0.224
37 | ETLRCEPMWMCMGF [Phage-2874] | 0.0975
38 | SMPRCVPVWMCEGF [Phage-2875] | 0.107
39 | DDIRCKPAWMCMGF [Phage-2876] | 0.127
40 | TLSMCVPTWMCTGF [Phage-2877] | 0.115

Biological target: T3, PSMA Fab
Assay: clonal phage ELISA; biotinylated PSMA Fab on neutravidin plate, anti-M13 HRP detection
Description: as §1

Row | Binder | Phage binding ELISA signal, Anti-PSMA Fab
41 | B1 | 2.44
42 | B2 | 2.44
43 | B3 | 2.43
44 | B4 | 2.43
45 | B5 | 2.43
46 | B6 | 2.43
47 | B7 | 2.42

Biological target: T4, 006 PSMA Fab
T4 construct: also called Anti-PSMA Fab
Assay: phage ELISA; biotinylated PSMA Fab on neutravidin plate, wells pre-incubated with PSMA antigen as competitor, anti-M13-HRP detection
Description: as §1

Row | Binder | Phage binding ELISA signal, Anti-PSMA Fab in presence of PSMA antigen
48 | B8 | 0.0714
49 | B9 | 0.0878
50 | B10 | 0.118
51 | B11 | 0.09
52 | B12 | 0.1
53 | B13 | 0.125
54 | B14 | 0.12
55 | B15 | 0.0765
56 | B16 | 0.146
57 | B17 | 0.0872
58 | B18 | 0.104
59 | B19 | 0.0629
60 | B20 | 0.104
61 | B21 | 0.0899

Biological target: T2, PSMA Fab
Assay: clonal phage ELISA on captured PSMA Fab, wells pre-incubated with PSMA antigen as competitor, anti-M13-HRP detection;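 also: crude clonal phage supernatants added without washing after the PSMA preincubation, comparison wells received blocking buffer alone without PSMA, bound phage read after washing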
Description: as §1

Row | Binder | phage binding ELISA signal in presence of PSMA
62 | ETPFCIPQWMCDGF [Phage-2892] | 0.123
63 | ALPQCVPAWMCLGF [Phage-2893] | 0.0796
64 | VLKMCEPLWMCVGF [Phage-2894] | 0.117
65 | QALMCVPEWMCLGF [Phage-2895] | 0.1
66 | IERMCRPAWMCDGF [Phage-2896] | 0.188

Biological target: T4, 006 PSMA Fab
Assay: phage ELISA; biotinylated PSMA Fab on neutravidin plate, blocking buffer alone, anti-M13-HRP detection
Description: as §1

Row | Binder | Phage binding ELISA signal, Anti-PSMA Fab
67 | B8 | 2.38
68 | B9 | 2.38
69 | B10 | 2.38
70 | B11 | 2.38
71 | B12 | 2.38
72 | B13 | 2.37
73 | B14 | 2.37
74 | B15 | 2.37
75 | B16 | 2.36
76 | B17 | 2.36
77 | B18 | 2.36
78 | B19 | 2.36
79 | B20 | 2.36
80 | B21 | 2.36
